The chains are these.
B1: H3 trimer (VHH)
chain: QVQLVESGGGLVKTGGSLRLSCAASGRTFSTYSMGWFRQAPGKEREFVAGMRWTGSSTFYSDSVKGRFTVSRNNAKDTVYLHMNSLKPEDTAVYYCAITTIVRAYYTEYTEADFGSWGQGTQVTVSSGAVLAPQVQLVESGGGLVKTGGSLRLSCAASGRTFSTYSMGWFRQAPGKEREFVAGMRWTGSSTFYSDSVKGRFTVSRNNAKDTVYLHMNSLKPEDTAVYYCAITTIVRAYYTEYTEADFGSWGQGTQVTVSSGSGSGSQVQLVESGGGLVKTGGSLRLSCAASGRTFSTYSMGWFRQAPGKEREFVAGMRWTGSSTFYSDSVKGRFTVSRNNAKDTVYLHMNSLKPEDTAVYYCAITTIVRAYYTEYTEADFGSWGQGTQVTVSS
B2: C5 trimer (VHH)
chain: QVQLVESGGGSVQAGGSLTLSCVASGVTLGRHAIGWFRQAPGKERERVSCIRTFDGITSYVESTKGRFTISSNNAMNTVYLQMNSLKPEDTAVYFCALGVTAACSDNPYFWGQGTQVTVSSGSGSGSQVQLVESGGGSVQAGGSLTLSCVASGVTLGRHAIGWFRQAPGKERERVSCIRTFDGITSYVESTKGRFTISSNNAMNTVYLQMNSLKPEDTAVYFCALGVTAACSDNPYFWGQGTQVTVSSGSGSGSQVQLVESGGGSVQAGGSLTLSCVASGVTLGRHAIGWFRQAPGKERERVSCIRTFDGITSYVESTKGRFTISSNNAMNTVYLQMNSLKPEDTAVYFCALGVTAACSDNPYFWGQGTQVTVSS
notes: also called trimeric C5 nanobody; C5-6GS-C5-6GS-C5
B3: C1 trimer (VHH)
chain: QVQLVESGGGLVQPGGSLRLSCAASGFTNDFYSIAWFRQAPGKEREGVSWLSVSDNTPTYVDSVKDRFTISRHNANNTVYLQMNMLKPEDTAIYYCAAGRFAGRDTWPSSYDYWGQGTQVTVSSGSGSGSQVQLVESGGGLVQPGGSLRLSCAASGFTNDFYSIAWFRQAPGKEREGVSWLSVSDNTPTYVDSVKDRFTISRHNANNTVYLQMNMLKPEDTAIYYCAAGRFAGRDTWPSSYDYWGQGTQVTVSSGSGSGSQVQLVESGGGLVQPGGSLRLSCAASGFTNDFYSIAWFRQAPGKEREGVSWLSVSDNTPTYVDSVKDRFTISRHNANNTVYLQMNMLKPEDTAIYYCAAGRFAGRDTWPSSYDYWGQGTQVTVSS
B4: C5 (VHH)
VHH: QVQLVESGGGSVQAGGSLTLSCVASGVTLGRHAIGWFRQAPGKERERVSCIRTFDGITSYVESTKGRFTISSNNAMNTVYLQMNSLKPEDTAVYFCALGVTAACSDNPYFWGQGTQVTVSS
notes: also called VHH C5
B5: F2 (VHH)
VHH: QVQLVESGGGLVQAGGSLRLACIASGRTFHSYVMAWFRQAPGKEREFVAAISWSSTPTYYGESVKGRFTISRDNAKNTVYLQMNRLKPEDTAVYFCAADRGESYYYTRPTEYEFWGQGTQVTVSS
notes: also called VHH F2
B6: H3 (VHH)
VHH: QVQLVESGGGLVKTGGSLRLSCAASGRTFSTYSMGWFRQAPGKEREFVAGMRWTGSSTFYSDSVKGRFTVSRNNAKDTVYLHMNSLKPEDTAVYYCAITTIVRAYYTEYTEADFGSWGQGTQVTVSS
B7: C1 (VHH)
VHH: QVQLVESGGGLVQPGGSLRLSCAASGFTNDFYSIAWFRQAPGKEREGVSWLSVSDNTPTYVDSVKDRFTISRHNANNTVYLQMNMLKPEDTAIYYCAAGRFAGRDTWPSSYDYWGQGTQVTVSS

One test deals with Alpha RBD.
On to B1, for which the Kd was 0.006 nM, the T1/2 came to 98 min, the koff amounted to 0.00012 s⁻¹ and the kon is 1.8e+07 M⁻¹ s⁻¹.

As for B2, binding was characterised by a dissociation constant (Kd) of 0.029 nM and the T1/2 came out at 41 min.

As for B3, binding was put at a Kd of 0.073 nM, the T1/2 amounted to 154 min, the koff worked out at 7.4e-05 s⁻¹ and the association rate constant (kon) turned out to be 1e+06 M⁻¹ s⁻¹.

In another test the target is Alpha RBD. The source holds these as a separate data set.
For the molecule B4, the Kd was determined as 2.52 nM and the T1/2 turned out to be 1 min.

On to B5, for which the Kd came to 0.047 nM and the T1/2 turned out to be 51 min.

B6 gave a Kd of 0.102 nM and a T1/2 of 10 min.

Consider B7, for which the Kd was 0.725 nM and the T1/2 amounted to 21 min.

Usually Kd stands for the constant that tells how readily two partners part at equilibrium. A higher Kd goes with lower affinity. By koff is commonly meant the rate constant with which the complex falls apart. In general, kon refers to the second-order rate constant of association. Low values mean slower complex formation, high ones faster complex formation.

For the origin of these results see patent US20230374116A1 (ROSALIND FRANKLIN INSTITUTE, published 2023).
